The target of test [1] is human GPC3 on Jurkat E6.1 cells (human) (UniProt P51654). In words: FACS; share of events in the FL1-A+ gate (from 10^5); beside Irrelavant IgG C10 6.49; cells by legend: Jurkat E6.1 with human GPC3, not printed on the panel [23D]. Background: A flow cytometer gives signals particle by particle.
For test [2] the target is unchanged. The test can be described thus: FACS; share of events in the FL1-A+ gate (from 10^5); secondary only 0.21; cells by legend: Jurkat E6.1 with human GPC3, not printed on the panel [23B].
Test [3] has the same target. The test can be described thus: FACS; share of events in the FL1-A+ gate (from 10^5); cells by legend: Jurkat E6.1 with human GPC3, not printed on the panel [23C].
Test [4] has as its target T1, human GPC3 on HepG2 cells (human, UniProt P51654 25-554).
T1 construct: whole, on cells
In words: FACS, periplasmic extract 1:5 + anti-c-myc + GAM-APC on HepG2, well A1; same on A-431: 0.10%.

Test [5] addresses T1, human GPC3 on HepG2 cells. In words: FACS, phage-displayed clone on HepG2, well A1; same clone on A-431 (no GPC3): 1028.96.
The target of test [6] is T2, human GPC3 recombinant protein (human, UniProt P51654 25-559).
T2 construct: also called huGPC3; Human GPC3 protein
The test can be described thus: SPR (Biacore), VHH-His over human GPC3 on CM5; fit 125 - 7.8 nM; Rmax 16.8 RU; Chi2 0.926. As for the experimental part: (§1) Affinities of the 19 VHH-His tagged domains were then determined by BiaCore assay. Human GPC3 protein (Sino biological cat. nr. 10088-H08H-500) was immobilized on CM5 sensor chip (GE Healthcare) as antigen. Purified VHH-His tagged domains were diluted in BiaCore buffer (0.01 M HEPES pH 7.4, 0.15 M NaCl, 3 mM EDTA, 0.05% P20) to 500 nM and injected over 2 minutes at […] followed by a half dilution series to 7.8 nM. 10 μl of 10 mM NaOH/1M NaCl were injected between samples and then off-rate wash was 5 minutes.
For orientation: In SPR one partner is held on a chip, and binding of the other changes the refractive index at the surface.

The target in test [7] is T2, human GPC3 recombinant protein. The test can be described thus: SPR (Biacore) off-rate screen, periplasmic extract over human GPC3 on CM5; R0 13.6; asterisk not explained on the sheet. As to the method:
(§2) Human GPC3 protein in acetate buffer, pH 5.0, was immobilized in a sensor chip CM5 (GE Healthcare; Cat. Nr. BR-1005-30; Lot. Nr.10245232) and successful immobilization was confirmed by using a commercially available human GPC3 antibody (R&D cat. nr. MAB2119) and the anti-GPC3-VHH-Fc (both at 10 μg/mL). Periplasmic extracts from the MP were diluted in Biacore Buffer (0.01 M HEPES pH 7.4, 0.15 M NaCl, 3 mM EDTA, 0.05% P20) and injected over 2 minutes at 30 μL/min. 10 μl of 10 mM NaOH/1M NaCl were injected between samples and off-rates were measured over 5 minutes. Off-rate ([…]) were calculated using BIACORE software 1:1 interaction Langmuir binding model.

The target is the same in test [8]. In words: SPR (Biacore), summary table; Chi2 0.926; Profile 'L.D.' (less desirable). As for the experimental part: as §1
The target in test [9] is T1, human GPC3 on HepG2 cells. The test can be described thus: FACS, phage-displayed clone on HepG2, well A1; same clone on A-431 (no GPC3): 0.95%.
Test [10] deals with T1, human GPC3 on HepG2 cells. In words: FACS, periplasmic extract 1:5 + anti-c-myc + GAM-APC on HepG2, well A1; same on A-431: 853.36.
For test [11], the target named is T2, human GPC3 recombinant protein. The test can be described thus: SPR (Biacore), VHH-His over human GPC3 on CM5; fit 131.7 - 17.34 nM; Rmax 1.51 RU; Chi2 0.0556; asterisk: values not accurately calculated by Biacore software. As to the method: as §1
Test [12] has the same target. In words: SPR (Biacore), VHH-His over human GPC3 on CM5; fit 131.7 - 17.34 nM; Rmax 1.51 RU; Chi2 0.0556. As to the method:
as §1

Test [13] shares this target. In words: SPR (Biacore), summary table; Chi2 0.0556; Profile 'L.D.'; asterisk: values not accurately calculated by Biacore software. As to the method: as §1
Test [14] shares this target. The test can be described thus: SPR (Biacore) off-rate screen, periplasmic extract over human GPC3 on CM5; R0 40.1. As for the experimental part: as §2
Test [15] concerns the target human GPC3 on Jurkat E6.1 cells (human) (UniProt P51654). In words: FACS, 1 µg/ml VH + anti-His-FITC; share of events in the FL1-A+ gate (from 10^5); secondary only 0.21 [23F].
Test [16] addresses T2, human GPC3 recombinant protein. The test can be described thus: SPR (Biacore), VHH-His over human GPC3 on CM5; fit 250 - 7.8 nM; Rmax 8.15 RU; Chi2 0.281. As for the experimental part:
as §1

For test [17] the target is unchanged. The test can be described thus: SPR (Biacore) off-rate screen, periplasmic extract over human GPC3 on CM5; R0 59.0. As to the method:
as §2

For test [18] the target is unchanged. The test can be described thus: SPR (Biacore), summary table; Chi2 0.281; Profile 'Medium'; FIG. 18 prints 2.97E-09. As to the method:
as §1

Test [19] concerns the target T1, human GPC3 on HepG2 cells. In words: FACS, phage-displayed clone on HepG2, well H1; same clone on A-431 (no GPC3): 1059.31.
Test [20] concerns the target T1, human GPC3 on HepG2 cells. In words: FACS, periplasmic extract 1:5 + anti-c-myc + GAM-APC on HepG2, well H1; same on A-431: 0.24%.
In test [21] the target is T1, human GPC3 on HepG2 cells. The test can be described thus: FACS, periplasmic extract 1:5 + anti-c-myc + GAM-APC on HepG2, well H1; same on A-431: 759.64.
The target of test [22] is T1, human GPC3 on HepG2 cells. The test can be described thus: FACS, phage-displayed clone on HepG2, well H1; same clone on A-431 (no GPC3): 1.36%.
For test [23], the target named is T2, human GPC3 recombinant protein. The test can be described thus: SPR (Biacore), VHH-His over human GPC3 on CM5; fit 131.7 - 17.34 nM; Rmax 1.72 RU; Chi2 0.173. As for the experimental part:
as §1

Test [24] has the same target. The test can be described thus: SPR (Biacore), summary table; Chi2 0.173; Profile 'L.D.'; asterisk: values not accurately calculated by Biacore software. As for the experimental part: as §1
The target is the same in test [25]. In words: SPR (Biacore), VHH-His over human GPC3 on CM5; fit 131.7 - 17.34 nM; Rmax 1.72 RU; Chi2 0.173; asterisk: values not accurately calculated by Biacore software. As to the method:
as §1

The target is the same in test [26]. The test can be described thus: SPR (Biacore), summary table; Chi2 0.281; Profile 'Good'.
Test [27] has the same target. In words: SPR (Biacore) off-rate screen, periplasmic extract over human GPC3 on CM5; R0 61.1. As for the experimental part:
as §2

For test [28] the target is unchanged. In words: SPR (Biacore), VHH-His over human GPC3 on CM5; fit 131.7 - 17.34 nM; Rmax 11.5 RU; Chi2 0.281. As to the method:
as §1

T1 sequence (P51654 25-554 limits assumed): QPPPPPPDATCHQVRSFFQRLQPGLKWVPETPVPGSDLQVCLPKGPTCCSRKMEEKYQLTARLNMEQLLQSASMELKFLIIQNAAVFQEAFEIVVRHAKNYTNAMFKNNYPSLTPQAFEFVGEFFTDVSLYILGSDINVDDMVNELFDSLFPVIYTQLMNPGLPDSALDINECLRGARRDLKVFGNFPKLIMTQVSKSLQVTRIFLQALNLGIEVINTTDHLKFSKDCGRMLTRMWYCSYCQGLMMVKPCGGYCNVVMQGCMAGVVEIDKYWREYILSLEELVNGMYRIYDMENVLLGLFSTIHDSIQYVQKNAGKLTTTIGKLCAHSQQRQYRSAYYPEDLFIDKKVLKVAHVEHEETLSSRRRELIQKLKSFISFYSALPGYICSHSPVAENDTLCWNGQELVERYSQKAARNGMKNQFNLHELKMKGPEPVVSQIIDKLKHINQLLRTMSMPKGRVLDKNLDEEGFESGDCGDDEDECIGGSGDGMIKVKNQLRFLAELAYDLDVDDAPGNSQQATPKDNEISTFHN
Sequence of human GPC3 on Jurkat E6.1 cells (human) (P51654 25-554 limits assumed): as above
T2 sequence (P51654 25-559 limits assumed): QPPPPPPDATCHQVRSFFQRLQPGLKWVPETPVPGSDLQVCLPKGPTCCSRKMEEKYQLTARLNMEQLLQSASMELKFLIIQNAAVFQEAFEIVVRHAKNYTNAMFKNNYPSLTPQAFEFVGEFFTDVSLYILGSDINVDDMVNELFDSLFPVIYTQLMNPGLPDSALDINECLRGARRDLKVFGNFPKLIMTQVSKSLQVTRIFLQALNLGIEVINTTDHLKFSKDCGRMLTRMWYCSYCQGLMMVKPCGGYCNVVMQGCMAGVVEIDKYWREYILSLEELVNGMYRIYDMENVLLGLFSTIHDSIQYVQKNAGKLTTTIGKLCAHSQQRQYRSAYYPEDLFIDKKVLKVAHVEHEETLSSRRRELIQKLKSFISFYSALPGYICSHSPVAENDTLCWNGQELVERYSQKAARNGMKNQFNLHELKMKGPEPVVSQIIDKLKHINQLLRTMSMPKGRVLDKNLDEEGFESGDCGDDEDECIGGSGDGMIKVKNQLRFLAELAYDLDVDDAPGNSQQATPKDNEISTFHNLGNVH

With HN3-Fc (Fc fusion), the FL1-A+ in test [1] came to 74.9; in test [2], 47.1.
In test [3], Irrelavant IgG C10 (antibody) had an FL1-A+ of 6.49.

B1: anti-GPC3 VHH-His tagged domain VHH14 (VHH)
VHH: QVQLVESGGGLVQPGGSLRLSCAASGFNFSNYWMHWVRQAPGKELVWVSRINSDGSSTSYADPVKGRFTISRDNANNMLYLQMNSLRAEDTAMYYCVRVALGFDFWGQGTLVTVSS
notes: Produced from a mammalian expression vector as a His fusion; not shown: His tag
For orientation: Kd means the constant that tells how readily two partners part at equilibrium. One may read the koff as the rate constant with which the complex falls apart. As usually defined, the kon is a measure of how fast the partners come together. Consider B1, for which the % of Binding in test [4] is 0.38%. Also, in test [5], the Mean FL2-A stood at 2720. Moreover, in [6], the Ka was 1.51e+07 M⁻¹, the Kd is 66.2 nM, the koff was found to be 0.0216 s⁻¹ and the kon amounted to 327000 M⁻¹ s⁻¹. In test [7], the koff came to 0.00728 s⁻¹. The equilibrium dissociation constant (Kd) in test [8] was determined as 66.2 nM. Moreover, the % of Binding in test [9] was 18.6%. Also, the Mean FL4-A in [10] stood at 729.

B2: anti-GPC3 VHH-His tagged domain VHH17 (VHH)
VHH: EVQLVESGGGLVQPGGSLRLSCAASGFTFSSYAMSWVRQAPGKGLEWVSAIYSGGSTYYADSVKGRFTISRDNSKNTLYLQMNSLRAEDTAVYYCARGDSSSSRFDYWGQGTLVTVSS
notes: as for B1
Turning to B2, in [11], the Ka is ~1.86e+08 M⁻¹ and the Kd is ~5.36 nM. For the same molecule, in test [12], the koff worked out at 0.00119 s⁻¹ and the kon turned out to be 222000 M⁻¹ s⁻¹. Further, the equilibrium dissociation constant (Kd) in test [13] is ~5.36 nM.

B3: VH23 (VHH)
VHH: EVQLVESGGGLVQPGGSLRLSCAASGFTFSSYAMSWVRQAPGKESEWVSSISGGGSSTYYADSLKGRFTISRDNSKNTLYLQMNSLRAEDTAVYYCSKDPRFGEPPFDYWGQGTLVTVSS
notes: also called VHH23
As to B3, in test [14], the koff amounted to 0.00347 s⁻¹.

B4: anti-GPC3 VHH-His tagged domain VHH11 (VHH)
VHH: EVQLVESGGGLVQPGGSLRLSCAASGFTFSSYAMSWVRQAPGKEPEWVSSISGGGSSTYYADSLKGRFTISRDNSKNTLYLQMNSLRAEDTAVYYCSRDPRFREPPFDYWGQGTLVTVSS
notes: as for B1
For the molecule B4, the FL1-A+ in test [15] was found to be 0.78. In test [16], the Ka was 3.37e+08 M⁻¹, the equilibrium dissociation constant (Kd) came out at 2.97 nM, the off-rate constant (koff) was found to be 0.00261 s⁻¹ and the kon was found to be 880000 M⁻¹ s⁻¹. Moreover, the koff in [17] is 0.00325 s⁻¹. Also, the Kd in test [18] worked out at 2.19 nM. In test [19], this molecule yielded a Mean FL2-A of 22600. The % of Binding in test [20] amounted to 0.57%. Moreover, the Mean FL4-A in [21] was 842. This molecule registered a % of Binding in test [22] of 66.2%.

B5: anti-GPC3 VHH-His tagged domain VHH18 (VHH)
VHH: QVQLVESGGGLVQPGGSLRLSCAASGFTFSSYAMSWVRQAPGKEPEWVSSISGGGSSTYYADSLKGRFTISRDNSKNTLYLQMNSLRAEDTAVYYCSRDPRLGEPPFDYWGQGTTVTVSS
notes: as for B1
Turning to B5, in test [23], the koff was 0.00249 s⁻¹ and the kon was found to be 511000 M⁻¹ s⁻¹. The equilibrium dissociation constant (Kd) in [24] is ~4.88 nM. Besides, in test [25], the Ka is ~2.05e+08 M⁻¹ and the equilibrium dissociation constant (Kd) is ~4.88 nM.

B6: anti-GPC3 VHH-His tagged domain VHH4 (VHH)
VHH: QVQLVESGGGLVQPGGSLRLSCAASGFTFSSYAMSWVRQAPGKESEWVSSISGSGSSTYYADSLKGRFTISRDNSKNTLYLQMNSLRAEDTAVYYCSKDPRFGEPPFDYWGQGTTVTVSS
notes: Produced from a mammalian expression vector as a His fusion; also called VH4; not shown: His tag
As for B6, the Kd in test [26] turned out to be 5.07 nM. Moreover, in test [27], the koff is 0.00236 s⁻¹. Moreover, in test [28], the Ka was determined as 1.97e+08 M⁻¹, the Kd came out at 5.07 nM, the dissociation rate constant (koff) turned out to be 0.00237 s⁻¹ and the on-rate (kon) amounted to 466000 M⁻¹ s⁻¹.

Values taken from patent US20260191905A1 (MODERNATX, published 2026).
